Assay results: the supplement of paper PMC10567573

B1: DYRK1B (parent)
chain: KKVLNHGYDDDNHDYIVRSGERWL
B2: CCDC6 (parent)
chain: FTPPTSLTRAGMSYYNSPGLHVQH
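Note: lentivirally expressed fusions sorted by FACS into six bins by GFP to DsRed ratio, PSI derived from sequencing read proportions per bin multiplied by bin number.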

Variants of: B1
Test: protein stability index of a GFP-peptide fusion (GPS, HEK-293T) (PSI 1-6); higher = more stable
Details: c terminus: a fixed tail appended
In the case of KKVLNHGYDDDNHDYIVRSGNRWL, the protein stability index is reported as 2.67.
Variant KKVLNHGYDDDNHDYIVRSGVRWL has a protein stability index of 2.28.
KKVLNHGYDDDNHDYIVRSGTRWL showed a protein stability index of 2.7.
With KKVLNHGYDDDNHDYIVRSGMRWL the protein stability index was 2.57.
Work on KKVLNHGYDDDNHDYIVRSGYRWL yielded a protein stability index of 2.32.
Work on KKVLNHGYDDDNHDYIVRSGQRWL yielded a protein stability index of 3.05.
With KKVLNHGYDDDNHDYIVRSGRRWL the protein stability index was 2.83.
KKVLNHGYDDDNHDYIVRSGWRWL gave a protein stability index of 2.57.
In the case of KKVLNHGYDDDNHDYIVRSGLRWL, the protein stability index is reported as 3.02.
Work on KKVLNHGYDDDNHDYIVRSGSRWL yielded a protein stability index of 2.42.
Work on KKVLNHGYDDDNHDYIVRSGKRWL yielded a protein stability index of 3.1.
Variant KKVLNHGYDDDNHDYIVRSGPRWL has a protein stability index of 2.61.
For KKVLNHGYDDDNHDYIVRSGERNL, the protein stability index was 4.56.
KKVLNHGYDDDNHDYIVRSGERDL gave a protein stability index of 4.73.
Work on KKVLNHGYDDDNHDYIVRSGERIL yielded a protein stability index of 3.9.
For KKVLNHGYDDDNHDYIVRSGERLL, the protein stability index was 3.88.
Variant KKVLNHGYDDDNHDYIVRSGERSL has a protein stability index of 4.47.
With KKVLNHGYDDDNHDYIVRSGERCL the protein stability index was 3.8.
KKVLNHGYDDDNHDYIVRSGEREL gave a protein stability index of 4.46.
In the case of KKVLNHGYDDDNHDYIVRSGERVL, the protein stability index is reported as 4.31.
Work on KKVLNHGYDDDNHDYIVRSGERPL yielded a protein stability index of 3.7.
KKVLNHGYDDDNHDYIVRSGERYL gave a protein stability index of 3.64.
KKVLNHGYDDDNHDYIVRSGERAL showed a protein stability index of 3.81.
With KKVLNHGYDDDNHDYIVRSGERRL the protein stability index was 3.6.
Work on KKVLNHGYDDDNHDYIVRSGERFL yielded a protein stability index of 3.62.
KKVLNHGYDDDNHDYIVRSGERKL gave a protein stability index of 4.3.
With KKVLNHGYDDDNHDYIVRSGERHL the protein stability index was 3.99.
KKVLNHGYDDDNHDYIVRSGERML showed a protein stability index of 3.93.
KKVLNHGYDDDNHDYIVRSGERQL showed a protein stability index of 4.2.
In the case of KKVLNHGYDDDNHDYIVRSGERTL, the protein stability index is reported as 4.3.
KKVLNHGYDDDNHDYIVRSGERGL showed a protein stability index of 4.07.
For KKVLNHGYDDDNHDYIVRSGEIWL, the protein stability index was 2.17.
In the case of KKVLNHGYDDDNHDYIVRSGECWL, the protein stability index is reported as 2.85.
KKVLNHGYDDDNHDYIVRSGEQWL showed a protein stability index of 3.53.
For KKVLNHGYDDDNHDYIVRSGEYWL, the protein stability index was 2.52.
KKVLNHGYDDDNHDYIVRSGEWWL showed a protein stability index of 2.06.
For KKVLNHGYDDDNHDYIVRSGEPWL, the protein stability index was 3.16.
With KKVLNHGYDDDNHDYIVRSGESWL the protein stability index was 3.35.
With KKVLNHGYDDDNHDYIVRSGEDWL the protein stability index was 3.44.
Variant KKVLNHGYDDDNHDYIVRSGEGWL has a protein stability index of 3.19.
For KKVLNHGYDDDNHDYIVRSGETWL, the protein stability index was 2.83.
With KKVLNHGYDDDNHDYIVRSGELWL the protein stability index was 2.25.
KKVLNHGYDDDNHDYIVRSGEEWL gave a protein stability index of 3.58.
In the case of KKVLNHGYDDDNHDYIVRSGEMWL, the protein stability index is reported as 2.57.
Variant KKVLNHGYDDDNHDYIVRSGEAWL has a protein stability index of 3.15.
For KKVLNHGYDDDNHDYIVRSGENWL, the protein stability index was 3.31.
Work on KKVLNHGYDDDNHDYIVRSGEKWL yielded a protein stability index of 3.29.
With KKVLNHGYDDDNHDYIVRSGEFWL the protein stability index was 1.91.
KKVLNHGYDDDNHDYIVRSGEVWL gave a protein stability index of 2.6.
With KKVLNHGYDDDNHDYIVRSGEHWL the protein stability index was 3.13.
KKVLNHGYDDDNHDYIVRSGERWI showed a protein stability index of 3.33.
For KKVLNHGYDDDNHDYIVRSGERWD, the protein stability index was 4.08.
With KKVLNHGYDDDNHDYIVRSGERWN the protein stability index was 3.75.
With KKVLNHGYDDDNHDYIVRSGERWF the protein stability index was 2.81.
Variant KKVLNHGYDDDNHDYIVRSGERWK has a protein stability index of 3.85.
Variant KKVLNHGYDDDNHDYIVRSGERWR has a protein stability index of 3.55.
For KKVLNHGYDDDNHDYIVRSGERWS, the protein stability index was 3.58.
Work on KKVLNHGYDDDNHDYIVRSGERWC yielded a protein stability index of 3.46.
Variant KKVLNHGYDDDNHDYIVRSGERWA has a protein stability index of 3.37.
In the case of KKVLNHGYDDDNHDYIVRSGERWT, the protein stability index is reported as 3.51.
Work on KKVLNHGYDDDNHDYIVRSGERWM yielded a protein stability index of 3.49.
In the case of KKVLNHGYDDDNHDYIVRSGERWG, the protein stability index is reported as 3.81.
For KKVLNHGYDDDNHDYIVRSGERWW, the protein stability index was 2.85.
KKVLNHGYDDDNHDYIVRSGERWQ showed a protein stability index of 3.69.
In the case of KKVLNHGYDDDNHDYIVRSGERWH, the protein stability index is reported as 3.57.
In the case of KKVLNHGYDDDNHDYIVRSGERWY, the protein stability index is reported as 3.03.
With KKVLNHGYDDDNHDYIVRSGERWE the protein stability index was 4.07.
Variant KKVLNHGYDDDNHDYIVRSGERWV has a protein stability index of 3.8.
Work on KKVLNHGYDDDNHDYIVRSGERWP yielded a protein stability index of 3.82.

Variants of: B2
Test: as above
Details: c terminus: a fixed tail appended
For FYPPTSLTRAGMSYYNSPGLHVQH, the protein stability index was 1.69.
For FSPPTSLTRAGMSYYNSPGLHVQH, the protein stability index was 1.5.
Variant FIPPTSLTRAGMSYYNSPGLHVQH has a protein stability index of 2.6.
Variant FCPPTSLTRAGMSYYNSPGLHVQH has a protein stability index of 1.91.
FVPPTSLTRAGMSYYNSPGLHVQH showed a protein stability index of 1.96.
FGPPTSLTRAGMSYYNSPGLHVQH showed a protein stability index of 2.47.
FPPPTSLTRAGMSYYNSPGLHVQH gave a protein stability index of 2.26.
With FLPPTSLTRAGMSYYNSPGLHVQH the protein stability index was 1.87.
Work on FWPPTSLTRAGMSYYNSPGLHVQH yielded a protein stability index of 2.67.
With FQPPTSLTRAGMSYYNSPGLHVQH the protein stability index was 1.91.
FNPPTSLTRAGMSYYNSPGLHVQH gave a protein stability index of 1.55.
FEPPTSLTRAGMSYYNSPGLHVQH gave a protein stability index of 2.83.
Work on FMPPTSLTRAGMSYYNSPGLHVQH yielded a protein stability index of 2.6.
With FKPPTSLTRAGMSYYNSPGLHVQH the protein stability index was 1.79.
For FAPPTSLTRAGMSYYNSPGLHVQH, the protein stability index was 1.84.
With FDPPTSLTRAGMSYYNSPGLHVQH the protein stability index was 2.1.
FHPPTSLTRAGMSYYNSPGLHVQH showed a protein stability index of 1.85.
For FRPPTSLTRAGMSYYNSPGLHVQH, the protein stability index was 2.17.
In the case of FFPPTSLTRAGMSYYNSPGLHVQH, the protein stability index is reported as 1.48.
Work on FTMPTSLTRAGMSYYNSPGLHVQH yielded a protein stability index of 1.87.
FTQPTSLTRAGMSYYNSPGLHVQH gave a protein stability index of 2.32.
In the case of FTCPTSLTRAGMSYYNSPGLHVQH, the protein stability index is reported as 2.
FTSPTSLTRAGMSYYNSPGLHVQH showed a protein stability index of 2.1.
Work on FTKPTSLTRAGMSYYNSPGLHVQH yielded a protein stability index of 2.78.
Variant FTNPTSLTRAGMSYYNSPGLHVQH has a protein stability index of 2.02.
